Laboratory results as given in patent US8076094.

Tests used:
[1] = tested on: GST control protein [GST: P08515]
GST-H3 1-44 = GST-H3 1-44 (UniProt P68431)
GST-H3 1-15 T11A = GST-H3 1-15 T11A (UniProt P68431)
[2] = biological target: histone H3 in nucleosomes purified from HeLa cells (UniProt P68431)

## Myc-PRK1, immunoprecipitated from 293 cell lysates
[1]
  phosphorylation in in vitro kinase assay (32P, SDS-PAGE, autoradiography): The GST control protein is not phosphorylated, thus demonstrating specificity
GST-H3 1-44
  phosphorylation in in vitro kinase assay (32P, SDS-PAGE, autoradiography): GST-H3 1-44 is phosphorylated by PRK1

## purified recombinant PRK1 (ProQinase GmbH)
GST-H3 1-15 T11A
  phosphorylation in in vitro kinase assay: mutation of threonine 11 to alanine in H3 1-15 (H3 1-15 T11A) abolishes phosphorylation
[2]
  phosphorylation in in vitro kinase assay, Western blot with α-phosphoH3T11: PRK1 phosphorylates nucleosomes at H3T11
